In the supplement of paper PMC9112550, “Optimization of the antimicrobial peptide Bac7 by deep mutational scanning” (BMC Biology, 2022):

Test system: Escherichia coli TOP10
Experiment: shrunken log2 fold change of peptide-encoding DNA abundance (4.5 h post-induction vs induction); higher = less antimicrobial activity (less host growth inhibition)
Conditions: time post-induction: 4.5 h; library: site-saturation at positions 5, 18, 19, 20
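Note: peptides expressed intracellularly from a pBAD plasmid library in pooled LB shake-flask culture, induced with 0.3% L-arabinose, DNA abundance read by NGS, three biological replicates, DESeq2 with apeglm shrinkage.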

Row | Sequence | shrunken log2 fold change
1 | RRIRLRPPRLPRPRPRPVYEPRP | 0.788
2 | RRIRTRPPRLPRPRPRPSDSPRP | -0.214
3 | RRIRIRPPRLPRPRPRPMTWPRP | -0.0244
4 | RRIRTRPPRLPRPRPRPQMHPRP | -0.426
5 | RRIRFRPPRLPRPRPRPTTAPRP | 0.297
6 | RRIRGRPPRLPRPRPRPMIHPRP | -0.0642
7 | RRIRLRPPRLPRPRPRPYYSPRP | -0.309
8 | RRIRRRPPRLPRPRPRPEGQPRP | 0.131
9 | RRIRVRPPRLPRPRPRPRGVPRP | 0.278
10 | RRIRFRPPRLPRPRPRPPSCPRP | 0.337
11 | RRIRARPPRLPRPRPRPEKFPRP | -0.0388
12 | RRIRARPPRLPRPRPRPAWMPRP | -0.00906
13 | RRIRGRPPRLPRPRPRPRIIPRP | 0.0317
14 | RRIRRRPPRLPRPRPRPTGIPRP | 0.872
15 | RRIRERPPRLPRPRPRPSQMPRP | 0.0681
16 | RRIRYRPPRLPRPRPRPEAVPRP | 0.0685
17 | RRIRSRPPRLPRPRPRPPQLPRP | 0.209
18 | RRIRTRPPRLPRPRPRPRTIPRP | 0.0752
19 | RRIRGRPPRLPRPRPRPFMFPRP | 1.16
20 | RRIRGRPPRLPRPRPRPEMAPRP | 2.8
21 | RRIRFRPPRLPRPRPRPSFSPRP | -0.702
22 | RRIRERPPRLPRPRPRPYKCPRP | -0.122
23 | RRIRERPPRLPRPRPRPRFQPRP | 0.2
24 | RRIRIRPPRLPRPRPRPNVCPRP | -0.204
25 | RRIRCRPPRLPRPRPRPHPCPRP | -0.579

Row | Sequence | shrunken log2 fold change
26 | RRIRDRPPRLPRPRPRPMEHPRP | 0.208
27 | RRIRDRPPRLPRPRPRPTVQPRP | 0.158
28 | RRIRMRPPRLPRPRPRPIDEPRP | -0.0525
29 | RRIRSRPPRLPRPRPRPTCSPRP | 0.0811
30 | RRIRDRPPRLPRPRPRPKDNPRP | -0.116
31 | RRIRIRPPRLPRPRPRPDQNPRP | 0.0467
32 | RRIRERPPRLPRPRPRPHLDPRP | 0.000475
33 | RRIRARPPRLPRPRPRPKYFPRP | 0.0918
34 | RRIRHRPPRLPRPRPRPHEPPRP | -0.0274
35 | RRIRHRPPRLPRPRPRPLPEPRP | 0.126
36 | RRIRWRPPRLPRPRPRPHHQPRP | -0.316
37 | RRIRIRPPRLPRPRPRPKDIPRP | -1.25
38 | RRIRFRPPRLPRPRPRPKCVPRP | -0.184
39 | RRIRLRPPRLPRPRPRPWGKPRP | -0.0201
40 | RRIRVRPPRLPRPRPRPSCEPRP | -0.303
41 | RRIRCRPPRLPRPRPRPPVWPRP | 0.129
42 | RRIRARPPRLPRPRPRPNLTPRP | 0.287
43 | RRIRFRPPRLPRPRPRPSGAPRP | 0.103
44 | RRIRIRPPRLPRPRPRPYCVPRP | -0.207
45 | RRIRTRPPRLPRPRPRPSNGPRP | -0.126
46 | RRIRWRPPRLPRPRPRPGVMPRP | 0.477
47 | RRIRERPPRLPRPRPRPQAIPRP | -0.0062
48 | RRIRIRPPRLPRPRPRPKRYPRP | -0.118
49 | RRIRLRPPRLPRPRPRPWPSPRP | 0.341
50 | RRIRLRPPRLPRPRPRPYWSPRP | -1.41

Row | Sequence | shrunken log2 fold change
51 | RRIRPRPPRLPRPRPRPRIRPRP | 0.0752
52 | RRIRVRPPRLPRPRPRPSIEPRP | -0.255
53 | RRIRQRPPRLPRPRPRPLCMPRP | -0.37
54 | RRIRHRPPRLPRPRPRPRFIPRP | -0.135
55 | RRIRRRPPRLPRPRPRPMGLPRP | -0.0617
56 | RRIRNRPPRLPRPRPRPWKAPRP | -0.0227
57 | RRIRHRPPRLPRPRPRPEDCPRP | -0.0178
58 | RRIRVRPPRLPRPRPRPHRLPRP | -0.0912
59 | RRIRWRPPRLPRPRPRPNGIPRP | 0.0301
60 | RRIRWRPPRLPRPRPRPYMPPRP | -0.695
61 | RRIRWRPPRLPRPRPRPPHIPRP | 0.696
62 | RRIRERPPRLPRPRPRPPACPRP | 0.0779
63 | RRIRFRPPRLPRPRPRPSVWPRP | -0.229
64 | RRIRLRPPRLPRPRPRPRLIPRP | 0.123
65 | RRIRMRPPRLPRPRPRPSCSPRP | -0.0918
66 | RRIRTRPPRLPRPRPRPMEFPRP | -0.0956
67 | RRIRHRPPRLPRPRPRPYFEPRP | -0.76
68 | RRIRARPPRLPRPRPRPHTCPRP | -0.29
69 | RRIRERPPRLPRPRPRPYLDPRP | -0.149
70 | RRIRARPPRLPRPRPRPPDSPRP | 0.212
71 | RRIRGRPPRLPRPRPRPHDCPRP | 0.0253
72 | RRIRKRPPRLPRPRPRPLKKPRP | 0.0649
73 | RRIRDRPPRLPRPRPRPADVPRP | 0.384
74 | RRIRVRPPRLPRPRPRPKINPRP | -0.18
75 | RRIRRRPPRLPRPRPRPEHAPRP | 0.686
